Source: patent US20040248790A1, “Novel secretory proteins and dna thereof” (priority 2001, published 2004)
Where no end group is shown, it is not given here.

Columns and labels:
Type in all cases: cell-based
mock CHO cells [1] = assay: cAMP production-suppressing activity in mock CHO cells (control); conditions: mock CHO cells as the control; forskolin
Procedure: (§1) AQ27-expressing CHO cells (FIG. 24) established by a method known per se and mock CHO cells (FIG. 25) serving as a control were plated on a 96-well plate (Becton Dickinson Company, Ltd.) at a density of 4×10^4 cells/well and cultured overnight. The assay buffer used was a buffer prepared by adding 0.1% bovine serum albumin and 0.2 mM 3-isobutyl-1-methylxanthine to a Hanks' balanced salt solution. The cells were washed twice with the assay buffer and pre-incubated at 37° C. for 30 minutes. The cells were washed again twice with the assay buffer, and a sample prepared in the assay buffer was added thereto, and the cells were incubated at 37° C. for 30 minutes. To evaluate the cAMP production-suppressing activity, a sample composed exclusively of 2 μM forskolin (FSK, Wako Pure Chemical Industries, Ltd.) promoting production of cAMP and a sample containing 2 μM FSK and 10^−7 to 10^−5 M novel polypeptide F: Arg-Lys-Lys-Gly-Gly-Phe-Ser-Phe-Arg-Phe-NH2 (positions 124 to 133 in SEQ ID NO: 23) were compared. A supernatant of the cells was discarded, and the amount of cAMP produced in the cells was measured by cAMP Screen System (Applied Biosystems).

AQ27 [2] = molecular target: T1, AQ27 (Homo sapiens, UniProt Q96P65); assay: CRE-luciferase reporter gene assay in HEK 293 cells transiently expressing AQ27 receptor; design: expressed in transfected cells; host or cells: HEK 293 cells, transient, vector pAKKO-111H, co-transfected with pCRE-Luc; conditions: pCRE-Luc reporter, peptide 10, 1 and 0.1 μM in Example 9, 4 hours
T1 sequence (Q96P65 1-431): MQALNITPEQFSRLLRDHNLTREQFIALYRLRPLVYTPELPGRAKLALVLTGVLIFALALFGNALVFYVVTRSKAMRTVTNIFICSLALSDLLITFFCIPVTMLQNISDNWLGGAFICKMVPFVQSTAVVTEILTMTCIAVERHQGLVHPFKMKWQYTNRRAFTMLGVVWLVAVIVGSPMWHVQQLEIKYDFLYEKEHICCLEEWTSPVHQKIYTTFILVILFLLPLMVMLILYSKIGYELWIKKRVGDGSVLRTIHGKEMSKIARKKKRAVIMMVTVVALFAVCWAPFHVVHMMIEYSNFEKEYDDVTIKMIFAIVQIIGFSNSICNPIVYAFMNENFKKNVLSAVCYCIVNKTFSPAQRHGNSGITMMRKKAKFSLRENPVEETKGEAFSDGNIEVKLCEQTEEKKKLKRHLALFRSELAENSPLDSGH
Source text: (§2) The specific stimulating activity of novel polypeptides F synthesized in Example 8 on AQ27 receptor (SEQ ID NO: 31) and human OT7T022 receptor (SEQ ID NO: 35) was detected by using, as an indicator, the amount of a reporter gene product (luciferase) produced by induction of expression of a cAMP response element (CRE) promoter.
The HEK 293 cells were suspended in a growth medium (DMEM [Dulbecco's Modified Eagle Medium] (Gibco BRL) containing 10% fetal bovine serum (Gibco BRL)), and plated at a density of 1×10^5 cells/well on a black 96-well plate (Becton Dickinson Company, Ltd.) coated with collagen. After the cells were cultured overnight at 37° C. in 5% CO2, the cells were transfected in the following manner with a reporter gene-containing plasmid pCRE-Luc (Clontech) and simultaneously with an expression vector plasmid prepared by inserting AQ27 gene (SEQ ID NO: 32) and human OT7T022 gene (SEQ ID NO: 36) by a known method into an animal cell expression vector pAKKO-111H (the same plasmid vector as pAKKO-1.11H described in Biochem. Biophys. Acta, Hinuma, S. et al., 1219, 251-259, 1994) or with the intact pAKKO-111H not containing AQ27 gene.
OPTI-MEM-I (Gibco BRL) and Lipofectamine™ 2000 Reagent (Gibco BRL) were mixed in a ratio of 24:1 to prepare a Lipofectamine dilution. Separately, OPTI-MEM-I, AQ27 expression vector plasmid or the intact vector plasmid (240 ng/μl) and pCRE-Luc (240 ng/μl) were mixed in a ratio of 24:0.9:0.1 to prepare a DNA dilution. The Lipofectamine dilution and the DNA dilution were mixed in equal amounts and left for 20 minutes at room temperature, to form a DNA/Lipofectamine complex, and 25 μl of the complex was added to the plate where the HEK 293 cells were cultured, and the cells were further cultured overnight at 37° C. in 5% CO2.
(§3) The HEK 293 cells thus transfected were washed with an assay medium (DMEM containing 0.1% bovine serum albumin), and then each of novel polypeptides F synthesized in Example 8, diluted with the assay buffer, was added at concentrations of 10, 1 and 0.1 μM respectively to the cells which were then cultured at 37° C. in 5% CO2 for 4 hours. The culture supernatant was discarded, and 50 μl Pikka Gene LT2.0 (Toyo Ink Mfg. Co., Ltd.), that is, a substrate for measurement of luciferase activity, was added thereto, and the fluorescence of luciferase was measured with a plate reader (ARVO sx multilabel counter, Wallac).
First, full-length human novel secretory protein F gene (SEQ ID NO: 24) was introduced in a usual manner into an expression vector […]. […] The AQ27-specific activity was detected by using an indicator the amount of the reporter gene product (luciferase) produced by induction with expression of cAMP response element (CRE) promoter.

mock CHO cells [3] = assay: Intracellular calcium ion change (FLIPR) in mock CHO cells (control); conditions: mock CHO cells as the control
AQ27 [4] = molecular target: T1, AQ27; assay: Intracellular calcium ion release (FLIPR) in AQ27-expressing CHO cells; design: expressed in transfected cells; host or cells: CHO cells; conditions: for peptide concentration at which intracellular calcium ion mobilizing activity was recognized in CHO-AQ27: AQ27-expressing CHO cells; for activity in promoting intracellular calcium ion release in AQ27-expressing CHO cells: peptide 10 μM and 1 μM compared with absence of the sample, Fluo 3-AM
Procedure: AQ27-expressing CHO cells established by a method known per se were plated on a 96-well black culture plate (Costar) at a density of 4×10^4 cells/well and cultured overnight. The assay buffer used was a buffer prepared by adding 20 mM HEPES, pH 7.4 (Dojin Kagaku) and 2.5 mM probenecid (Sigma) to a Hanks' balanced salt solution (HBSS). The medium for the cells were removed, and a solution prepared by adding 4 μM Fluo 3-AM (Dojindo) and 0.04% pluronic acid (Molecular Probes) to the assay buffer was added thereto and incubated at 37° C. for 1 hour. The cells were washed with the assay buffer to remove an excess of Fluo 3 and set in FLIPR (Molecular Devices). A sample dissolved in the assay buffer was also set in FLIPR, and the sample was added to the cells by a built-in manipulator, and a change in fluorescence depending on the concentration of intracellular calcium ions generated by irradiation with an excitation light was measured. As a result, the reactions shown in FIGS. 26 and 27 were detected respectively in the presence of novel peptide F: Arg-Lys-Lys-Gly-Gly-Phe-Ser-Phe-Arg-Phe-NH2 (positions 124 to 133 (RKKGGFSFRF—NH2) in SEQ ID NO: 23) and novel polypeptide F: Gly-Gly-Phe-Ser-Phe-Arg-Phe-NH2 (positions 127 to 133 (GGFSFRF—NH2) in SEQ ID NO: 23) in an amount of 10 μM (▴) and 1 μM (□), as compared with the absence of the sample (◯), and the activity of each peptide in promoting intracellular calcium ion release in the AQ27-expressing CHO cells was detected.

AQ27 [5] = molecular target: T1, AQ27; assay: cAMP production-suppressing activity in AQ27-expressing CHO cells; design: expressed in transfected cells; host or cells: CHO cells; conditions: 2 μM forskolin; for cAMP production induced by FSK in AQ27-expressing CHO: 30 minutes at 37° C., 10^−7 to 10^−5 M peptide in Example 12
Procedure: as §1

human OT7T022 receptor = molecular target: T2, human OT7T022 receptor (Homo sapiens, UniProt Q9GZQ6); assay: CRE-luciferase reporter gene assay in HEK 293 cells transiently expressing OT7T022 receptor; conditions: HEK 293 cells transiently expressing human OT7T022 receptor; pCRE-Luc reporter; peptide 10, 1 and 0.1 μM in Example 9
T2 construct: expressed in transfected cells; host or cells: HEK 293 cells, transient, vector pAKKO-111H, co-transfected with pCRE-Luc
Source text: as §2
The HEK 293 cells were suspended in a growth medium (DMEM [Dulbecco's Modified Eagle Medium] (Gibco BRL) containing 10% fetal bovine serum (Gibco BRL)), and plated at a density of 1×10^5 cells/well on a black 96-well plate (Becton Dickinson Company, Ltd.) coated with collagen. […]
as §3

T2 sequence (Q9GZQ6 whole entry): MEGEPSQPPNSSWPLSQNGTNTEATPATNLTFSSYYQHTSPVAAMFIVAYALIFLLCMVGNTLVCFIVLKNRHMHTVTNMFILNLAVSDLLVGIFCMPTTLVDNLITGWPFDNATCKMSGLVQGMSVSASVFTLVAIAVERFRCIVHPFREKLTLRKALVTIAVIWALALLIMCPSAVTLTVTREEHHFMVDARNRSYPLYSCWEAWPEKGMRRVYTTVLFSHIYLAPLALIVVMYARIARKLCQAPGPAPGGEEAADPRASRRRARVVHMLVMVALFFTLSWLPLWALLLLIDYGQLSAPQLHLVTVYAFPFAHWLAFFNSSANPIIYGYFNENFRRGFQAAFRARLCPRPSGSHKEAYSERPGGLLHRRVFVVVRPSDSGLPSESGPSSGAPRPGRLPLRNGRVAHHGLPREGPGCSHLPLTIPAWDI

Row | activity of luciferase stimulated by adding forskolin (FSK), AQ27 receptor (AQ27 [2]) | peptide concentration at which intracellular calcium ion mobilizing activity was recognized in CHO-AQ27 (AQ27 [4]) | peptide concentration at which FSK-induced cAMP production was suppressed in AQ27-expressing CHO (AQ27 [5]; AQ27-expressing CHO cells) | activity in promoting intracellular calcium ion release in AQ27-expressing CHO cells (AQ27 [4]) | cAMP production induced by FSK in AQ27-expressing CHO (AQ27 [5]) | activity of luciferase stimulated by adding FSK, human OT7T022 receptor (human OT7T022 receptor) | Substance | cAMP production-suppressing activity in mock CHO cells (mock CHO cells [1]) | intracellular calcium ion mobilizing activity in mock CHO cells (mock CHO cells [3])
1 | increase in luciferase activity | at least 10^−6 M | at least 10 M |  |  |  | Ala-Ser-Gln-Pro-Gln-Ala-Leu-Leu-Val-Ile-Ala-Arg-Gly-Leu-Gln-Thr-Ser-Gly-Arg-Glu-His-Ala-Gly-Cys-Arg-Phe-NH2 (ASQPQALLVIARGLQTSGREHAGCRF-NH2) [A1-F28-NH2] | not recognized | not recognized
2 |  |  |  | detected |  |  | Gly-Gly-Phe-Ser-Phe-Arg-Phe-NH2 (GGFSFRF-NH2) |  | 
3 | increase in luciferase activity | at least 10^−8 M |  |  | suppressed |  | Pyr-Asp-Glu-Gly-Ser-Glu-Ala-Thr-Gly-Phe-Leu-Pro-Ala-Ala-Gly-Glu-Lys-Thr-Ser-Gly-Pro-Leu -Gly-Asn-Leu-Ala-Glu-Glu-Leu-Asn-Gly-Tyr-Ser-Arg-Lys-Lys-Gly-Gly-Phe-Ser-Phe Arg-Phe-NH2 (QDEGSEATGFLPAAGEKTSGPLGNLAEELNGYSRKKGGFSFRF; N-terminal pyroglutamate, C-terminal amide; Human) [Pyr1-F43-NH2] | not recognized | not recognized
4 | increase in luciferase activity |  |  |  |  |  | Thr-Ser-Gly-Pro-Leu-Gly-Asn-Leu-Ala-Glu-Glu-Leu-Asn-Gly-Tyr-Ser-Arg-Lys-Lys-Gly-Gly-Phe-Ser-Phe Arg-Phe-NH2 (TSGPLGNLAEELNGYSRKKGGFSFRF-NH2) [T1-F26-NH2] |  | 
5 | increasing the luciferase activity |  |  | detected | suppressed | suppressing the luciferase activity | Arg-Lys-Lys-Gly-Gly-Phe-Ser-Phe-Arg-Phe-NH2 (RKKGGFSFRF-NH2) |  | 
